# Source: article PMC2853111
# Read-outs that look alike come from different tables or passages of the source.
# B1: D66 ERE probe (5' ERE, MIRb) (dsDNA)
# DNA 1: CACCCAGGTCAGTCTGACATCTAAG
# DNA 2: CTTAGATGTCAGACTGACCTGGGTG
# B2: B68 ERE probe (3' ERE, MIRb) (dsDNA)
# DNA 1: TTTCTGGGTCACACCGACCTGAGCT
# DNA 2: AGCTCAGGTCGGTGTGACCCAGAAA
# B3: consensus ERE probe (ERE-EMSA) (dsDNA)
# DNA 1: GGATCTAGGTCACTGTGACCCCGGATC
# DNA 2: GATCCGGGGTCACAGTGACCTAGATCC
# Assays:
# [1] = target: T1, estrogen receptor alpha (rERα, NR3A1) (UniProt P03372 1-595); experiment: EMSA
# T1 sequence (P03372 whole entry): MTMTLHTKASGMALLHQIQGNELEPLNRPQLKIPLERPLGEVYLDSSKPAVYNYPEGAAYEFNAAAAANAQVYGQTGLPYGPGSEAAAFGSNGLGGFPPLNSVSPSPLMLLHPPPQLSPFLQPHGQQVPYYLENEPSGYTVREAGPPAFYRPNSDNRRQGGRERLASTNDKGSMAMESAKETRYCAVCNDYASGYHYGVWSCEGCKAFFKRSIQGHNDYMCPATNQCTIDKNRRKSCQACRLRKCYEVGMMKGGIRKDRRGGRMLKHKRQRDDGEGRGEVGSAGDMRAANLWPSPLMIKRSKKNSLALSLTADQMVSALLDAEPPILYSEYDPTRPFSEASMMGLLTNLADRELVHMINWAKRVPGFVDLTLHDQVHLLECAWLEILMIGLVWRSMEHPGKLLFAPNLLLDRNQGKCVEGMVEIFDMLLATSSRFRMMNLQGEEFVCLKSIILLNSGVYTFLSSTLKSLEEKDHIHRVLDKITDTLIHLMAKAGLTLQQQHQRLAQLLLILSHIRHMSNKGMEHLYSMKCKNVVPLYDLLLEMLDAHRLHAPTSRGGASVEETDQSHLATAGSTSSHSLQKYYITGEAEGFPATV
# [2] = target: T1, estrogen receptor alpha (rERα, NR3A1); experiment: EMSA; remark: listed apart in the source
binder,measurement,setting,value
B1,binding result,[1],binds
B2,binding result,[1],binds
B3,binding result,[2],binds
